The target in this test is Kv1.2 (Homo sapiens, UniProt P16389). Briefly: patch-clamp electrophysiology.

Among the data in paper PMC10975748 (2024) are Kd values, retold here.

Sequence of Kv1.2 (P16389 whole entry): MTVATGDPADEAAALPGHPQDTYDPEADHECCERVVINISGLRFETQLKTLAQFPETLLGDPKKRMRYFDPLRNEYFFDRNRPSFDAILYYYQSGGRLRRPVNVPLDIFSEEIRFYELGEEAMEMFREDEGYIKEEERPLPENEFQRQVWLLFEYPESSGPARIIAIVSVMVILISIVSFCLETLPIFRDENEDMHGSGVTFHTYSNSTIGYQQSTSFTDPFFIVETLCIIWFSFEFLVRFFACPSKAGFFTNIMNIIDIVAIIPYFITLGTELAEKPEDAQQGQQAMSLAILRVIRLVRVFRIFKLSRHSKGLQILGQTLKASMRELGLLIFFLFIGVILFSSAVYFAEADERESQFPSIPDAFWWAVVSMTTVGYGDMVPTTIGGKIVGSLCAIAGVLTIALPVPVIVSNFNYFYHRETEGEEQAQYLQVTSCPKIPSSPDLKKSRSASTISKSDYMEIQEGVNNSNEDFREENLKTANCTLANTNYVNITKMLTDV

B1: Cm39 (peptide)
chain: TFINHKCKSSSECLPACKAAIGRASGKCINSTCKCYY
In the case of B1, the Kd worked out at 65 nM.
